{
  "source": "patent US20260159561A1",
  "about": "(MyNeuroCure Oy, priority 2017, published 2026)",
  "molecules": {"B1": {"name": "C-CDNF: Human C-CDNF, SEQ ID NO: 4: C-terminal domain of mature CDNF, amino acid 101 to 161; recombinant, Histidine tag at C-terminus (protein, listed as Homo sapiens)", "chain": "KYEKTLDLASVDLRKMRVAELKQILHSWGEECRACAEKTDYVNLIQELAPKYAATHPKTEL"}},
  "key": {"[1]": {"tested_on": "Huntington's disease rat model (quinolinic acid)", "test": "Quinolinic acid Huntington's disease rat model, rotarod and grip strength", "format": "in vivo", "conditions": "single intrastriatal injection 2 weeks after QA, vs QA+PBS", "source_text": "Adult Wistar rats received a single, unilateral intrastriatal injection of quinolinic acid (QA) 225 nmol into coordinates: A/P+0.7; L/M+2.8; D/V −6.0. Quinolinic acid is a toxin that induces striatal neuron death by an excitotoxic process. […] Rats were randomized to groups before the treatments started. Rotarod and grip strength tests were done weekly."}, "dopaminergic neurons": {"tested_on": "dopaminergic neurons", "test": "Survival of TH-positive dopaminergic neurons in midbrain cultures", "format": "cell-based", "conditions": "added to culture medium, 5 days, E13/E13.5 NMRI mouse midbrain floors", "description": "To study the dopamine neurons (Yu et al., 2008; Yu and Arumae, 2008), the midbrain floors were dissected from the ventral mesencephali of 13.5-d-old NMRI strain mouse embryos. Tissues were incubated with 0.5% trypsin (ICN Biomedical), then mechanically dissociated using a large fire-polished Pasteur pipette. […] Same amount of the neurons were plated to each well at the beginning of the experiments. The cultures without added neurotrophic factors served as the negative control. As the midbrain cultures contain several neuronal types, the cultures were fixed and immunostained with the antibodies to tyrosine hydroxylase (TH) (Millipore), a specific marker for the dopaminergic neurons. Images of each well were scanned by CellInsight™ and immunopositive neurons were counted by CellProfiler and CellProfiler analyst software. Data are expressed as a percentage of GDNF-maintained TH-positive neurons. All experiments were repeated at least three times on the independent cultures. The results were expressed as the mean the SEM and were tested for the significance by either one-way ANOVA and Tukey's post hoc test or by two-tailed Student's t-test. The null hypothesis was rejected at P<0.05."}, "SOD1-G93A mice": {"tested_on": "SOD1-G93A mice", "test": "SOD1-G93A mouse ALS model, single intracerebroventricular injection", "format": "in vivo", "conditions": "females, vs PBS", "source_text": "Transgenic SOD1 G93A mice served as a transgenic mouse model for ALS in this study. Transgenic mice containing various human SOD1 mutations develop progressive neurodegeneration and motoneuron (MN) death, providing an animal model that has been commonly used for preclinical trials and that has greatly contributed to the understanding of FALS pathogenesis (Gurney et al., 1994). […] In these mice hind limb weakness and tremulous movement appear as initial symptoms at 8-10 week of age, followed by major symptoms such as progressive motor paralysis and neurogenic amyotrophy (Shibata 2001). These mice subsequently show disability of gait, eating and drinking and die within some weeks, usually at 14-16 week of age. […] Transgenic expression was analyzed by DNA tail tests and PCR, using specific oligonucleotides and conditions as done previously by others (see homepage Jackson Lab). […]\nMice were then evaluated for signs of disease and body weight changes twice a week. […]\nClinical scoring for SOD1 mice was done using instructions from Jackson laboratory. […] Animals were scored by lifting them gently by the base of their tails and observing them for tremors, stiffness and their ability to extend their limbs. […]"}, "[2]": {"tested_on": "rat model of cerebral ischemia", "method": "Male Sprague Dawley rats (weight 230-270 g, Envigo, Netherlands) were used for the experiments which were conducted according to the 3R principles of EU directive 2010/63/EU on the care and use of experimental animals, local laws and regulations, and were approved by the national Animal Experiment Board of Finland All experiments were performed in a blinded manner and the rats were assigned to different treatment groups randomly. Rats were anesthesized with chloral hydrate (0.4 g/kg, i.p). […] Briefly, the bilateral CCAs were identified and isolated through a ventral midline cervical incision. Rats were placed in stereotaxic apparatus and a craniotomy was made in the right hemisphere. The right (MCA) was ligated with a 10-0 suture and bilateral common carotids (CCA) were ligated with non-traumatic arterial clamps for 60 minutes. After sixty minutes of ischemia, the suture around the MCA and arterial clips on CCAs were removed to introduce a reperfusional injury. After recovery from anesthesia, the rats were returned to their home cage. Body temperatures during and after surgery were maintained at 37° C.\nTo test the neuroprotective effect of subcutaneous C-CDNF, 50 μg of C-CDNF was given 30-50 min before dMCA occlusion and immediately after reperfusion in volume of 100 μl s.c. Phosphate-buffered saline (PBS) was used as vehicle control. The rats were euthanized 2 days after dMCAo to measure the infarction volume by 2% 2,3,5-triphenyltetrazolium chloride (TTC; Sigma Aldrich, St. Louis, MO) staining. Rats were decapitated and the brains were removed and sliced into 2.0-mm-thick sections using an acrylic rat brain block. The brain slices were incubated in a 2% TTC solution (Sigma, St. Louis, MO, USA) for 15 min at room temperature and then transferred into a 4% paraformaldehyde solution for fixation. The area of infarction in each slice was measured with a digital scanner and ImageJ software. The volume of infarction in each animal was obtained from the product of average slice thickness (2 mm) and sum of infarction areas in rostral brain slices examined. […]"}},
  "note": "“Also recorded” adds a separate entry of the source.",
  "data": [
    {"molecule": "B1", "values": [
      {"measurement": "rotarod latency to fall (motor behavior)", "setting": "[1]; equimolar to CDNF 10 micrograms", "result": "improved motor behavior statistically significantly; also recorded: improved motor performance in both rotarod and grip strength tests"},
      {"measurement": "grip strength (left paw)", "setting": "[1]; 3 and 5 week time points", "result": "significantly improved performance at 3 and 5 week time points; also recorded: improved motor performance in both rotarod and grip strength tests"},
      {"measurement": "TH-positive neurons, percentage of GDNF-maintained neurons", "setting": "dopaminergic neurons", "result": "protects dopaminergic neurons in vitro"},
      {"measurement": "clinical score", "setting": "SOD1-G93A mice; single i.c.v. 3.75 μg at 13 weeks of age", "result": "statistically significantly better clinical scores"},
      {"measurement": "rotarod latency to fall", "setting": "SOD1-G93A mice; single i.c.v. 3.75 μg, 4-40 rpm, cut-off 4 min", "result": "improves the motor behavior"},
      {"measurement": "infarction volume", "setting": "[2]; 50 μg s.c. before dMCA occlusion and after reperfusion, rostral part of cerebral cortex, 2 days after dMCAo", "result": "decreases the infarction volume"},
      {"measurement": "lesion size, smaller than in vehicle treated rats", "setting": "[2]; 50 μg s.c. before occlusion and after reperfusion, vs PBS", "result": "about 50%"},
      {"measurement": "blood pressure and heart rate", "setting": "[2]; rat, in vivo", "result": "does not affect blood pressure and heart rate"}
    ]}
  ]
}
